Reference: US20250276018A1 (AFFYIMMUNE THERAPEUTICS, published 2025)
Substitutions are numbered along the chain they refer to. Numbers in names are those of the source.

B1: Affy6-I3G CAR (other)
chain: GSEQKLISEEDLGSQVQLVQSGAEVKKPGASVKVSCKASGYIFTAYTMHWVRQAPGQGLEWMGWIKPNNGLANYAQKFQGRVTMTRDTSISTAYMELSRLRSDDTAVYYCARSEGTTEFDYWGQGTLVTVSSGGGGSGGGGSGGGGSDIVLTQSPDSLAVSLGERATINCKSSESVDSYANSFMHWYQQKPGQPPKLLIYRASTRESGVPDRFSGSGSRTDFTLTISSLQAEDVAVYYCQQSKEDPLTFGGGTKVEIKASTTTPAPRPPTPAPTIASQPLSLRPEACRPAAGGAVHTRGLDFACDFWVLVVVGGVLACYSLLVTVAFIIFWVRSKRSRLLHSDYMNMTPRRPGPTRKHYQPYAPPRDFAAYRSLRVKFSRSADAPAYQQGQNQLYNELNLGRREEYDVLDKRRGRDPEMGGKPRRKNPQEGLYNELQKDKMAEAYSEIGMKGERRRGKGHDGLYQGLSTATKDTYDALHMQALPPR
notes: CAR on transduced human T cells; I to G in HC CDR3; P2A remnant not included; also called MycT-Affy6-I3G CAR-SSTR2
B2: Affy6-I3W CAR (other)
chain: B1 chain with G115W
notes: CAR on transduced human T cells; I to W in HC CDR3; P2A remnant not included; also called MycT-Affy6-I3W CAR-SSTR2

Columns and labels:
[1] = molecular target: T1, c-MET on human target cells (human, UniProt P08581 25-1390); assay: cell-based or functional assay
T1 sequence (P08581 25-1390): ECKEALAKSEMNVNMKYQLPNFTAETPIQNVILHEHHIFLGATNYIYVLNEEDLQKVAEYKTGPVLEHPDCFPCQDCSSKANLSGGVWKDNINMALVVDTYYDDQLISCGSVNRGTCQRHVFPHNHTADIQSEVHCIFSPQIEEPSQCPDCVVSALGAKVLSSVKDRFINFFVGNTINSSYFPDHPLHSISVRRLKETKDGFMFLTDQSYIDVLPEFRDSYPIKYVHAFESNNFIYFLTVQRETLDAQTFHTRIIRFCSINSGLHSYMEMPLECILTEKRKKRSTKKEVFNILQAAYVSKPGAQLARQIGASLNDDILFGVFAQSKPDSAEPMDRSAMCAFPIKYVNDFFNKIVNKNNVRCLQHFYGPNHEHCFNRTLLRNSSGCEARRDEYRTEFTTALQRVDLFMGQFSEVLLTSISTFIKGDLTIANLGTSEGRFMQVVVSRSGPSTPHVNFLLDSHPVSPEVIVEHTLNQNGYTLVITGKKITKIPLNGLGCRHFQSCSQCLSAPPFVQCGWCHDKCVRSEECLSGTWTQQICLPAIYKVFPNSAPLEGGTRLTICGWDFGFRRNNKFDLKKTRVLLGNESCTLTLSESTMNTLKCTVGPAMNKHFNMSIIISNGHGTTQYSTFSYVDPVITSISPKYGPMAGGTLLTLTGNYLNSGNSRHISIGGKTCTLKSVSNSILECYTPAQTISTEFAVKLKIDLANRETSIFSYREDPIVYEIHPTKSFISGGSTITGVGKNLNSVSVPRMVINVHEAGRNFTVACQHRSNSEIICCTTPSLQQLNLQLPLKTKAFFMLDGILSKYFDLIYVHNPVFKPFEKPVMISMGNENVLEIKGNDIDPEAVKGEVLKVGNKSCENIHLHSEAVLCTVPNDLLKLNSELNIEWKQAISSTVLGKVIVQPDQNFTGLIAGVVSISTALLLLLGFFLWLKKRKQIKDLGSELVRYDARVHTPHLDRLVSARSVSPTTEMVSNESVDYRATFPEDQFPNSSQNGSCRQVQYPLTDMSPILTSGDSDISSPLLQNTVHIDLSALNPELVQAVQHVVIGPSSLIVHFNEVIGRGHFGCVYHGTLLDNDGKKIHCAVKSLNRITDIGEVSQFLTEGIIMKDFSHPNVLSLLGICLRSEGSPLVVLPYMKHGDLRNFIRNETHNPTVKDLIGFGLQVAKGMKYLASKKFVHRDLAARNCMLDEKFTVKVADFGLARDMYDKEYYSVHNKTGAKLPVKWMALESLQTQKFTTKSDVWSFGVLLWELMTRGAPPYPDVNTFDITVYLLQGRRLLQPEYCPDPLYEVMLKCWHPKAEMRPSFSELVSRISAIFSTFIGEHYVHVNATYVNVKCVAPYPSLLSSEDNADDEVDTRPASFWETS

[2] = molecular target: T1, c-MET on human target cells; assay: cell-based or functional assay; remark: listed apart in the source
[3] = molecular target: T2, AF647 labeled c-met protein (UniProt P08581 25-932, limits assumed, labeled with AlexaFluor 647 (AF647)); assay: flow cytometry, EC50 relative to parental Affy6 CAR-T cells (Round 2)
T2 construct: Soluble labeled c-met protein titrated on CAR-T cells
T2 sequence (P08581 25-932 limits assumed): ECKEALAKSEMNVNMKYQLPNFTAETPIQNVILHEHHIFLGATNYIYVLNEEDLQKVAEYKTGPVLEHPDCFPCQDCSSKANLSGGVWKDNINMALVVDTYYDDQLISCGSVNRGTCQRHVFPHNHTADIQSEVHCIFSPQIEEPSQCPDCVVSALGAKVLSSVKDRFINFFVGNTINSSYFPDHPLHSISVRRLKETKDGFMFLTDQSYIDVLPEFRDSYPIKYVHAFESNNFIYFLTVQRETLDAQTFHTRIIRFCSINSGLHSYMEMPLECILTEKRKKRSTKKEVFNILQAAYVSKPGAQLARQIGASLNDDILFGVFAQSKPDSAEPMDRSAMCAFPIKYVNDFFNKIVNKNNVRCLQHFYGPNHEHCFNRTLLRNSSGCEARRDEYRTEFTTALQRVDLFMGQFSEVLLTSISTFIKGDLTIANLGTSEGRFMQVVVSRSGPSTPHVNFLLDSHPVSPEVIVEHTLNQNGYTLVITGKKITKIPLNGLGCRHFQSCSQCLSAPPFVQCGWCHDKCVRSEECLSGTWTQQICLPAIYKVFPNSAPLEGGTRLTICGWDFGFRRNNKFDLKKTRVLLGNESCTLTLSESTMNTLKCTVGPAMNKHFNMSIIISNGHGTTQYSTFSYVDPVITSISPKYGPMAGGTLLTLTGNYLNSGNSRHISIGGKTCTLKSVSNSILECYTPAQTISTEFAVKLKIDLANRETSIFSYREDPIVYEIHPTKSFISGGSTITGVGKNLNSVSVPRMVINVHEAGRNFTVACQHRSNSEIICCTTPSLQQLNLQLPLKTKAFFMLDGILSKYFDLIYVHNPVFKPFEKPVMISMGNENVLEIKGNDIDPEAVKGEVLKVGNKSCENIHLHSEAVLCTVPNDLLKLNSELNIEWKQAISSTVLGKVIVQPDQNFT
Experimental: Binding of labeled c-MET to CAR-T cells expressing the affinity tuned c-MET scFvs was evaluated by transducing lentivirus anti-c-MET CAR particles into human T cells to form c-MET CAR-T cells incubated with AF647-labeled c-MET. […] Following a 48 hr. incubation at 37° C., the culture media was brought up to […] per well and incubated at 37° C. for 10 days.
Cells were stained on ice for 30 mins and then washed with PBS. After washing, residually bound protein on CAR T cells were measured on a flow cytometer (Beckman, CytoFLEX®). The resulting binding data was fit using a non-linear regression analysis on GraphPad Prism to calculate half effective dose concentration (EC₅₀) values. The results of this analysis are shown in FIGS. 2-5 and Tables 2-5 below.

[4] = molecular target: T2, AF647 labeled c-met protein; assay: flow cytometry, AF647-labeled c-met protein titrated on CAR-T cells (Round 2)
[5] = molecular target: T1, c-MET on human target cells; assay: cell-based or functional assay; remark: listed apart in the source
[6] = molecular target: T1, c-MET on human target cells; assay: cell-based or functional assay; remark: listed apart in the source
[7] = molecular target: T1, c-MET on human target cells; assay: cell-based or functional assay; remark: listed apart in the source

Row | Binder | cytotoxicity, Normal Human Lung Cells, 8 hrs [1] | cytotoxicity, Normal Human Lung Cells, 16 hrs [1] | cytotoxicity, Normal Human Lung Cells, 24 hrs [1] | cytotoxicity, Normal Human Lung Cells, 32 hrs [1] | cytotoxicity, Normal Human Lung Cells, 40 hrs [1] | cytotoxicity, Normal Human Lung Cells, 48 hrs [1] | cytotoxicity, Normal Human Liver Cells, 8 hrs [2] | cytotoxicity, Normal Human Liver Cells, 16 hrs [2] | cytotoxicity, Normal Human Liver Cells, 24 hrs [2] | cytotoxicity, Normal Human Liver Cells, 32 hrs [2] | cytotoxicity, Normal Human Liver Cells, 40 hrs [2] | cytotoxicity, Normal Human Liver Cells, 48 hrs [2] | Fold Change [3] [fold] | EC50 [4] [µM] | cytotoxicity, Normal Human Kidney Cells, 8 hrs [5] | cytotoxicity, Normal Human Kidney Cells, 16 hrs [5] | cytotoxicity, Normal Human Kidney Cells, 24 hrs [5] | cytotoxicity, Normal Human Kidney Cells, 32 hrs [5] | cytotoxicity, Normal Human Kidney Cells, 40 hrs [5] | cytotoxicity, Normal Human Kidney Cells, 48 hrs [5] | other results
1 | B1 | 14.8 | 17.3 | 19.5 | 18.4 | 28 | 33.1 | 9.6 | 13.7 | 18.1 | 22.3 | 22.5 | 20.5 | 6900 | 151 | 10.1 | 17.9 | 17.2 | 15.8 | 10.2 | 14 | cytotoxicity, Normal Human Colon Cells, 8 hrs [6]: 8.2; cytotoxicity, Normal Human Colon Cells, 16 hrs [6]: 14.4; cytotoxicity, Normal Human Colon Cells, 24 hrs [6]: 16.4; cytotoxicity, Normal Human Colon Cells, 32 hrs [6]: 11.4; cytotoxicity, Normal Human Colon Cells, 40 hrs [6]: 2; cytotoxicity, Normal Human Colon Cells, 48 hrs [6]: 10.7; percent cytotoxicity, H1993, 24 hrs [7]: 32.5%; percent cytotoxicity, H1993, 48 hrs [7]: 68.1%; percent cytotoxicity, H1993, 72 hrs [7]: 81.6%
2 | B2 | 14.3 | 20.9 | 30.6 | 34 | 41.2 | 42.7 | 15.1 | 32.4 | 44 | 52.5 | 52.4 | 53.6 | 167 | 3.6 | 23.6 | 39.4 | 46 | 48.6 | 43.6 | 39.5 | cytotoxicity, Normal Human Colon Cells, 8 hrs [6]: 18.8; cytotoxicity, Normal Human Colon Cells, 16 hrs [6]: 22.7; cytotoxicity, Normal Human Colon Cells, 24 hrs [6]: 27; cytotoxicity, Normal Human Colon Cells, 32 hrs [6]: 29.9; cytotoxicity, Normal Human Colon Cells, 40 hrs [6]: 30.9; cytotoxicity, Normal Human Colon Cells, 48 hrs [6]: 38.6; percent cytotoxicity, H1993, 24 hrs [7]: 74.9%; percent cytotoxicity, H1993, 48 hrs [7]: 93.5%; percent cytotoxicity, H1993, 72 hrs [7]: 98.2%
